The target in the assay is T1, HLA-A*02:01 on TAP deficient T2 cells (human).
T1 construct: whole, on cells; Endogenous HLA class I of T2 cells, detected with the pan HLA antibody W6/32
Nature of the assay: T2 cell HLA stabilization assay, flow cytometry with pan HLA antibody W6/32. How it is done: HLA-A*02:01 TAP deficient T2 cells (2×10⁵ in 200 μL) were incubated with peptides (25 μg per ml in 10% DMSO in PBS) in AIM-V plus 1% human serum at 25° C. overnight to facilitate peptide binding by reducing HLA turnover. The following day the cells were returned to 37° C. for 5 hours then stained with a pan HLA antibody (FITC-conjugated HLA, B, C; clone W6/32). HLA class I expression was measured by flow cytometry, and the percent increase in mean fluorescence intensity over cells incubated with 10% DMSO alone was calculated.

B1: YMYNKVAVL peptide (Atl2/ATL2 alternative splicing variant) (peptide)
peptide: YMYNKVAVL
notes: Peptide added to T2 cells at 25 ug per ml; also called one of the SYY peptides; candidate therapeutic peptide
Take B1: the binding result is “binds”.

B2: SMLEKTALL peptide (Sfxn5/SFXN5 alternative splicing variant) (peptide)
peptide: SMLEKTALL
notes: as for B1
Consider B2, for which the binding result is on record as “binds”.

For the origin of these results see patent US20250352576A1 (University of California, published 2025).
